Reference: paper PMC7392006, “Demethylase-independent function of JMJD2D as a novel antagonist of p53 to promote Liver Cancer initiation and progression”

B1: p21 promoter p53 element (dsDNA)
DNA 1: CTGGCCGTCAGGAACATGTCCCAACATGTTGAGCTCT
DNA 2: AGAGCTCAACATGTTGGGACATGTTCCTGACGGCCAG
B2: PUMA promoter p53 element (dsDNA)
DNA 1: GCGCGCCTGCAAGTCCTGACTTGTCCGCGGCG
DNA 2: CGCCGCGGACAAGTCAGGACTTGCAGGCGCGC

Biological target: p53 (recombinant, Active Motif 81091) (Homo sapiens, UniProt P04637 1-393)
Assay: EMSA; no JMJD2D; 5 mM Hepes pH 7.6, 100 mM KCl, 5 mM MgCl2, 1.25 mM DTT, 0.05% NP-40, 2.25% glycerol, 1 ug poly(dI.dC); 6% polyacrylamide gel; temperature not stated
Settings: protein: commercial; chain copies: 4; label: biotin end label; blunt

p53 (recombinant, Active Motif 81091), sequence (P04637 whole entry): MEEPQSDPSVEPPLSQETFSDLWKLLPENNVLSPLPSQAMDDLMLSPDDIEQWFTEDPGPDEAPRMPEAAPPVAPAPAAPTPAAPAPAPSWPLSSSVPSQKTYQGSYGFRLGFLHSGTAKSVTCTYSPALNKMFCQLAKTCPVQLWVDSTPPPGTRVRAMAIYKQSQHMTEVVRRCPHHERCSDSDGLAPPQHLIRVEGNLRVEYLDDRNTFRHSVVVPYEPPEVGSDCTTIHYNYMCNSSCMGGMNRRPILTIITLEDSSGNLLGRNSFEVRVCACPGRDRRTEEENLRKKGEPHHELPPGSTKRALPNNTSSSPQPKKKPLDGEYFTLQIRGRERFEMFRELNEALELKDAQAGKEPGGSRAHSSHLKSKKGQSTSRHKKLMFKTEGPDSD

| Binder | binding result |
| --- | --- |
| B1 | binds |
| B2 | binds |
